# Results reported in paper PMC7110135, “Molecular flexibility of DNA as a key determinant of RAD51 recruitment”.
# T1: human wild-type (WT) RAD51 (human), Q06609
# T1 chain: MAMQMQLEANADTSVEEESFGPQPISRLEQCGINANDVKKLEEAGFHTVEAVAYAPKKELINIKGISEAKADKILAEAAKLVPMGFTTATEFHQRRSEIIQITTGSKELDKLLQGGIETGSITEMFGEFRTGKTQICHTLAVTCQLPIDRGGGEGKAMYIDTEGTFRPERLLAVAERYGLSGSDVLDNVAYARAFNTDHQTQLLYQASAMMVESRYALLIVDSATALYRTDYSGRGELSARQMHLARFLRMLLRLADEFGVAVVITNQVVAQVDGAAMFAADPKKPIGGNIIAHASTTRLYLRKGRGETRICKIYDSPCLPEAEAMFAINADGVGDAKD
# Experiments:
# [1] = target: F86E RAD51 (human) (UniProt Q06609); experiment: SPR; Biotinylated ssDNA dT-50, dN-50, dA-50 and dsDNA dN-50p held on streptavidin-coated CM5 chips; F86E RAD51 injected at 30 uM; 37 C; same SPR running buffer with ATP and CaCl2. The protomer-protomer KD in solution is a single fit parameter of a simplified ODE polymerisation model, fitted to all four curves by ABC-SMC (n = 3).
# [2] = target: T2, RAD51 WT (Homo sapiens, UniProt Q06609 1-339); experiment: SPR; 3 uM RAD51, ATP, Ca2+; faster association, slower dissociation than dN-8p; SPR (Biacore T200, streptavidin CM5): 150 mM KCl, 20 mM Hepes pH 7.5, 2 mM DTT, 5 mg/ml BSA, 2.5 mM ATP, 10 mM CaCl2, 10% glycerol, 37 C; details: protein: recombinant; tags: untagged; chain copies: 16; label: 3' Biotin-TEG on strand 2; hairpin, two strands joined by (HEG)2, blunt
# [3] = target: T2, RAD51 WT; experiment: SPR; ATP, Ca2+; SPR (Biacore T200, streptavidin CM5): 150 mM KCl, 20 mM Hepes pH 7.5, 2 mM DTT, 5 mg/ml BSA, 2.5 mM ATP, 10 mM CaCl2, 10% glycerol, 37 C; details: protein: recombinant, tags: untagged
# [4] = target: T2, RAD51 WT; experiment: SPR; ATP, Ca2+; faster association than dN-50; SPR (Biacore T200, streptavidin CM5): 150 mM KCl, 20 mM Hepes pH 7.5, 2 mM DTT, 5 mg/ml BSA, 2.5 mM ATP, 10 mM CaCl2, 10% glycerol, 37 C; details: protein: recombinant; tags: untagged; chain copies: 10; label: 5' Biotin (C6)
# [5] = target: T2, RAD51 WT; experiment: SPR; 150 nM RAD51, 2.5 mM ATP, 10 mM Ca2+; faster association than dN-50p; SPR (Biacore T200, streptavidin CM5): 150 mM KCl, 20 mM Hepes pH 7.5, 2 mM DTT, 5 mg/ml BSA, 2.5 mM ATP, 10 mM CaCl2, 10% glycerol, 37 C; details: protein: recombinant; tags: untagged; chain copies: 10; label: 5' Biotin (C6)
# [6] = target: T2, RAD51 WT; experiment: SPR; 150 nM RAD51, 2.5 mM ATP, 10 mM Ca2+; slower association than dN-50, similar lifetime; SPR (Biacore T200, streptavidin CM5): 150 mM KCl, 20 mM Hepes pH 7.5, 2 mM DTT, 5 mg/ml BSA, 2.5 mM ATP, 10 mM CaCl2, 10% glycerol, 37 C; details: protein: recombinant; tags: untagged; chain copies: 16; label: 5' Biotin (C6) on strand 1; blunt
# [7] = target: T1, human wild-type (WT) RAD51 (human), …; experiment: SPR; Biotinylated ssDNA (dN-X) and dsDNA (dN-Xp) held on streptavidin-coated CM5 chips; WT RAD51 injected at 150 nM or 3 uM; 37 C; 150 mM KCl, 20 mM Hepes pH 7.5, 2 mM DTT, 5 mg/ml BSA, 2.5 mM ATP, 10 mM CaCl2, 10% glycerol. The protomer-protomer KD in solution is a single fit parameter of an ODE polymerisation model, fitted to all curves by ABC-SMC (n = 3).; details: remark: other sources report otherwise
# [8] = target: T2, RAD51 WT; experiment: SPR; 3 uM RAD51, ATP, Ca2+; slightly faster association, slow dissociation; SPR (Biacore T200, streptavidin CM5): 150 mM KCl, 20 mM Hepes pH 7.5, 2 mM DTT, 5 mg/ml BSA, 2.5 mM ATP, 10 mM CaCl2, 10% glycerol, 37 C; details: protein: recombinant; tags: untagged; chain copies: 10; label: 3' Biotin-TEG
# [9] = chain copies: 10, label: 3' Biotin-TEG
molecule,measurement,setting,value
F86E RAD51 (from UniProt Q06609 1-339) (natural protein),Kd,[1],10.2 µM
"dsDNA dN-11p (dsDNA, two hexaethylene glycol linkers join 3' end of strand 1 to 5' end of strand 2) DNA 1: CGTCGATAGGC DNA 2: GCCTATCGACG",binding result,[2],binds
CGGAC (ssDNA) [ssDNA dN-5],binding result,[3]; [9],no binding
"dsDNA dN-5p (dsDNA, two hexaethylene glycol linkers join 3' end of strand 1 to 5' end of strand 2) DNA 1: CGGAC DNA 2: GTCCG",binding result,"[3]; chain copies: 16, label: 3' Biotin-TEG on strand 2, hairpin, two strands joined by (HEG)2, blunt",no binding
TTTTTTTTTTTTTTTTTTTTTTTTTTTTTTTTTTTTTTTTTTTTTTTTTT (ssDNA) [ssDNA dT-50],binding result,[4],binds
CTGACTGC (ssDNA) [ssDNA dN-8],binding result,[3]; [9],no binding
CGTCGATAGGC (ssDNA) [ssDNA dN-11],binding result,[3]; [9],no binding
TTGAGAGAGCAGACCACAATTATCACCTACACGACATCATTTTATATCAA (ssDNA) [ssDNA dN-50],binding result,[5],binds
dsDNA dN-50p (dsDNA) DNA 1: TCGAGAGGGTAAACCACAATTATCGCCTACCCAAAACTATTTTATATCAA DNA 2: TTGATATAAAATAGTTTTGGGTAGGCGATAATTGTGGTTTACCCTCTCGA,binding result,[6],binds
"human wild-type (WT) RAD51, Q06609 1-339 (natural protein) MAMQMQLEANADTSVEEESFGPQPISRLEQCGINANDVKKLEEAGFHTVEAVAYAPKKELINIKGISEAKADKILAEAAKLVPMGFTTATEFHQRRSEIIQITTGSKELDKLLQGGIETGSITEMFGEFRTGKTQICHTLAVTCQLPIDRGGGEGKAMYIDTEGTFRPERLLAVAERYGLSGSDVLDNVAYARAFNTDHQTQLLYQASAMMVESRYALLIVDSATALYRTDYSGRGELSARQMHLARFLRMLLRLADEFGVAVVITNQVVAQVDGAAMFAADPKKPIGGNIIAHASTTRLYLRKGRGETRICKIYDSPCLPEAEAMFAINADGVGDAKD",Kd,[7],0.00114 µM
CGTCGATGAGCAGTGTC (ssDNA) [ssDNA dN-17],binding result,[8],binds
